Laboratory results taken from PMC9581967, “Helical ultrastructure of the metalloprotease meprin α in complex with a small molecule inhibitor” (Nature Communications, 2022).
Each block holds one molecule with its values, some of them ahead of it.

Experiments:
[1] = target: meprin α R372A (human (from the printed accession Q16819)) (UniProt Q16819); assay: electron microscopy; variants imaged, concentration not stated (below the high concentration of 3 µM); N counts subunits
[2] = target: meprin α R372A (human (from the printed accession Q16819)) (UniProt Q16819); assay: mass photometry; single-molecule mass measurement, 20 °C; low concentration (10 nM in the results, roughly 2-5 nM in the methods); association of homodimers through the helical interface; N counts subunits
[3] = target: meprin α R372T (human (from the printed accession Q16819)) (UniProt Q16819); assay: electron microscopy; variants imaged, concentration not stated (below the high concentration of 3 µM); N counts subunits
[4] = target: meprin α R372T (human (from the printed accession Q16819)) (UniProt Q16819); assay: MALDI-TOF mass spectrometry; linear positive mode, DHAP matrix; shows only covalently (disulphide) linked species; N counts subunits
[5] = target: meprin α wild type (V22-S600 construct; zymogen or activated form not told for the experiment) (human (from the printed accession Q16819)) (UniProt Q16819); assay: as above
[6] = target: the molecule itself; assay: cryo-EM structure; meprin α alone (zymogen or active form), helical filament of covalent homodimers; 30 mM Tris, 100 mM NaCl, pH 7.4; pseudo single-particle analysis of filament segments

stoichiometry N [1]: 2
stoichiometry N [2]: 4
Molecule: meprin α R372A (from UniProt Q16819 22-600) (enzyme)

stoichiometry N [3]: 2
stoichiometry N [4]: 2
Molecule: meprin α R372T (from UniProt Q16819 22-600) (enzyme)

More lines, now with the values behind:

Molecule: meprin α wild type (V22-S600 construct; zymogen or activated form not told for the experiment) (from UniProt Q16819 22-600) (enzyme)
stoichiometry N [5]: 2

B1: pro-meprin α (V22-S600), wild type zymogen (enzyme, UniProt Q16819 22-600, looked up)
chain: VPIKYLPEENVHDADFGEQKDISEINLAAGLDLFQGDILLQKSRNGLRDPNTRWTFPIPYILADNLGLNAKGAILYAFEMFRLKSCVDFKPYEGESSYIIFQQFDGCWSEVGDQHVGQNISIGQGCAYKAIIEHEILHALGFYHEQSRTDRDDYVNIWWDQILSGYQHNFDTYDDSLITDLNTPYDYESLMHYQPFSFNKNASVPTITAKIPEFNSIIGQRLDFSAIDLERLNRMYNCTTTHTLLDHCTFEKANICGMIQGTRDDTDWAHQDSAQAGEVDHTLLGQCTGAGYFMQFSTSSGSAEEAALLESRILYPKRKQQCLQFFYKMTGSPSDRLVVWVRRDDSTGNVRKLVKVQTFQGDDDHNWKIAHVVLKEEQKFRYLFQGTKGDPQNSTGGIYLDDITLTETPCPTGVWTVRNFSQVLENTSKGDKLQSPRFYNSEGYGFGVTLYPNSRESSGYLRLAFHVCSGENDAILEWPVENRQVIITILDQEPDVRNRMSSSMVFTTSKSHTSPAINDTVIWDRPSRVGTYHTDCNCFRSIDLGWSGFISHQMLKRRSFLKNDDLIIFVDFEDITHLS
modifications: N-linked glycosylations
notes: meprin α, UniProt Q16819, residues V22-S600 (native signal peptide omitted, stop codon after S600; lacks the EGF-like and transmembrane regions); pro-peptide still on the chain; Disulphide-linked (C308) homodimer; the homodimers join non-covalently into a helical filament; Secreted through the BiP signal peptide of pMT/BiP/V5; also called latent state; meprin α ectodomain; source: Schneider-2 …
binding result [6]: binds
